Results as given in FireProtDB (doi:10.1006/jmbi.1997.1365).

Details: Homo sapiens, pH 2.7, Thermal, DSC, glycine 0.05 M, reversible: yes, whole UniProt chain shown

B1: Lysozyme C wild type, P61626 (protein)
chain: MKALIVLGLVLLSVTVQGKVFERCELARTLKRLGMDGYRGISLANWMCLAKWESGYNTRATNYNAGDRSTDYGIFQINSRYWCNDGKTPGAVNACHLSCSALLQDNIADAVACAKRVVRDPQGIRAWVAWRNRCQNRDVRQYVQGCGV
heat capacity change of unfolding (64.9 °C): 1.58 kcal/mol/K | unfolding enthalpy (calorimetric) (64.9 °C): 114 kcal/mol | unfolding enthalpy (van 't Hoff) (64.9 °C): 120 kcal/mol | Tm: 64.9 °C | heat capacity change of unfolding: 1.58 kcal/mol/K
